{"source": "paper PMC3365070", "about": "“Overexpression of a Maize Sulfite Oxidase Gene in Tobacco Enhances Tolerance to Sulfite Stress via Sulfite Oxidation and CAT-Mediated H2O2 Scavenging” (PLoS ONE, 2012)", "proteins": {"B1": {"name": "ZmSO (recombinant maize sulfite oxidase) (Zea mays subsp. mays) (protein)", "chain": "MPGLTAPSDYAEEPPRHPALKINSKEPFNAEPHRSELVASYITPVDFFYKRNHGPIPKVEDLSRYTVSISGLVNKSIQLSMADIWSLPKYNVTATLQCAGNRRTAMSNVRKVRGVGWDISALGTATWGGAKLSDVLELVGIPKLSSVTSLGGKHVEFVSVDKCKEEKGGPYTASIPLNQATNPDADVLLAYEMNGEVLNRDHGYPLRVVVPGVIGARSVKWLDSINVKEEECQGFFMQKDYKMFPPTVDWDNINWSTRRPQMDFPVQSAICTLEDVDVIKEGQARIAGYALSGGGRGIERVDVSADGGKTWVEARRYQKDNVAYVSDGPQSDKWAWVLFEATLDVPANPEIVVKAVDSAANVQPEKVEDIWNLRGILNTSWHRIKIQRSSCVERSKL", "notes": "45 kDa; Mo domain, no heme domain; primers give N-terminus MPGLTA"}}, "substrate": "O=S(O)O", "test": "purified protein", "assay_type": "biochemical, Zea mays", "details": "400 µM ferricyanide as electron acceptor, sulfite 2.5-400 µM, 20 mM Tris-HCl pH 8.0 (general SO assay)", "data": [{"protein": "B1", "values": [{"measurement": "Km", "result": "21.4 ± 0.32", "unit": "µM"}]}]}
